Data reported in patent US20020081601A1, “Methods and compositions for diagnosis and treatment of cancer based on the transcription factor ets2” (MUSC Foundation For Research Development., priority 1998, published 2002).

Tested on: DU145
Experiment: Soft agar growth assay (anchorage independent growth)
Format: cell-based, human
Conditions: DN-ETS2 transfectants vs DU145 parental; after three weeks
Procedure: Soft agar growth assays were performed in six-well plates (35-mm wells). Cells (20,000) were plated in 0.4% agar (Sigma) in RPMI 1640 supplemented with 10% FBS. An underlayer of 0.8% agar was used to prevent attachment of cells. Triplicate assays initiated with 20,000 cells were fed weekly by agar overlay and scored after 3 weeks. The soft agar assays were performed twice, independently.

B1: DN-ETS2: dominant negative ETS2 mutant: DNA binding domain (C-terminal amino acids 334-469) of human ETS2, expressed from pDN-ETS2 (protein, UniProt P15036 334-469, looked up, fragment)
chain: YIQERSDPVEQGKPVIPAAVLAGFTGSGPIQLWQFLLELLSDKSCQSFISWTGDGWEFKLADPDEVARRWGKRKNKPKMNYEKLSRGLRYYYDKNIIHKTSGKRYVYRFVCDLQNLLGFTPEELHAILGVQPDTED
anchorage-independent growth in soft agar: do not grow well in soft agar
